Measurements reported in publication PMC8246079 (Chemical Science, 2021).
Read-outs that look alike come from different tables or passages of the source. Non-standard residues stand in square brackets, D forms with d. No end group written: not given here. Lys(Me3) = C[N+](C)(C)CCCC[C@H](N)C(=O)O

Legend:
Test in all cases: ITC
BPTF PHD domain Y23M [1] = target: BPTF PHD domain Y23M
[2] = target: DIDO1 (death inducer obliterator 1) PHD domain, wild type
[3] = target: TAF3 PHD domain M900Q/M907Q (the paper's wild-type construct) (UniProt Q5VWG9)
[4] = target: TAF3 PHD domain M900Q/M907Q with norleucine in place of M882 (Nle mutant) (UniProt Q5VWG9)
[5] = target: TAF3 PHD domain M900Q/M907Q with selenomethionine in place of M882 (SeMet mutant) (UniProt Q5VWG9)
BPTF PHD domain Y23M [6] = target: BPTF PHD domain Y23M; remark: listed apart in the source
DIDO1 PHD domain M35C = DIDO1 PHD domain M35C (UniProt Q9BTC0)
[7] = target: DIDO1 PHD domain with selenomethionine in place of methionine (SeMet mutant) (UniProt Q9BTC0)
TAF3 PHD domain M882A = TAF3 PHD domain M882A (UniProt Q5VWG9)
[8] = target: TAF3 PHD domain M900Q/M907Q (the paper's wild-type construct) (UniProt Q5VWG9); remark: listed apart in the source
[9] = target: TAF3 PHD domain M900Q/M907Q with norleucine in place of M882 (Nle mutant) (UniProt Q5VWG9); remark: listed apart in the source
[10] = target: TAF3 PHD domain M900Q/M907Q with selenomethionine in place of M882 (SeMet mutant) (UniProt Q5VWG9); remark: listed apart in the source
[11] = target: T1, DIDO1 (death inducer obliterator 1) PHD domain, wild type (UniProt Q9BTC0 266-325)
T1 sequence: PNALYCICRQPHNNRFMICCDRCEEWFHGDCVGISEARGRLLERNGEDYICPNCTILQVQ

“Histone H3 peptide with tert-butyl norleucine in place of K4 (H3K4tBuNle 1-13, with a C-terminal Tyr)” showed a Kd (BPTF PHD domain Y23M [1]) of 7.48 µM and a Kd [2] of 2.9 µM.

In the case of “histone H3 tail peptide with tert-butyl norleucine in place of K4me3 (H3K4tBuNle), ARTX… with X = tBuNle”, the Kd [3] is reported as 10.7 µM, the Kd [4] is reported as 13.7 µM and the Kd [5] is reported as 8.3 µM.

B1: histone H3 tail peptide trimethylated at K4 (H3K4me3), ARTX… with X = Kme3 (peptide)
peptide: ART[Lys(Me3)]QTARKSTGGY
B1 gave a Kd (BPTF PHD domain Y23M [6]) of 7.5 µM, a Kd (DIDO1 PHD domain M35C) of 36 µM and a Kd [7] of 4.2 µM. The Kd (TAF3 PHD domain M882A) was 120 µM, the Kd [8] was 1.05 µM and the Kd [9] was 1.7 µM. For the same molecule, the Kd [10] was 0.84 µM.

B2: histone H3 tail peptide trimethylated at K4 (H3K4me3), ARTXQTARKSTGGY with X = Kme3 (peptide)
peptide: ART[Lys(Me3)]QTARKSTGGY
For B2, the Kd [11] was 2.28 µM.
